Source: PMC3706316, “Transcription Factor Ets1 Cooperates with Estrogen Receptor α to Stimulate Estradiol-Dependent Growth in Breast Cancer Cells and Tumors” (PLoS ONE, 2013)

T1: GST-Ets1 fusion protein (UniProt P14921 1-441)
T1 construct: Transcription factor Ets1 fused to GST; the only Ets1 cDNA it names is human ETS1 (pSG5-hEts1); also called purified GST-Ets1 fusion; source: recombinant fusion protein, prepared using glutathione-sepharose resin as previously described [40]; held on the resin
T1 sequence (looked up): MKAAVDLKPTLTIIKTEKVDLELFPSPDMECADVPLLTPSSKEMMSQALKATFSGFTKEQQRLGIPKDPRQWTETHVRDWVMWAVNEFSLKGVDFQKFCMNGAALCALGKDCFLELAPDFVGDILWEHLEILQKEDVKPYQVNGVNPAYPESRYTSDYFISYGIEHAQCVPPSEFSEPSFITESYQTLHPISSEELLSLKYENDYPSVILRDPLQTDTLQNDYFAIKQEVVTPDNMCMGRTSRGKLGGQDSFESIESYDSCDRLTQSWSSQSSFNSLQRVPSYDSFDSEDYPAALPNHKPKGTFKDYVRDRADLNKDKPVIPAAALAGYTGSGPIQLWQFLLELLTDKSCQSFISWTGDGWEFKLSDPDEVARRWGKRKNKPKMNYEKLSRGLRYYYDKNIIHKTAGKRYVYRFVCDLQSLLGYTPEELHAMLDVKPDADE

B1: nuclear receptor coactivator NCOA2 (SRC2), GreenLys-labeled (natural protein)
chain: not shown
modifications: Fluorotect GreenLys-labeled (fluorescent lysines built in during translation)
notes: plasmid PCR3.1 SRC2/NCOA2 from O'Malley and Smith; source: in vitro translated (TNT coupled transcription-translation reticulocyte lysate, T7 polymerase) from PCR3.1 SRC2/NCOA2
B2: nuclear receptor coactivator NCOA3 (AIB/SRC3), GreenLys-labeled (natural protein)
chain: not shown
modifications: Fluorotect GreenLys-labeled (fluorescent lysines built in during translation)
notes: plasmid PCR3.1 SRC3/NCOA3 from O'Malley and Smith; source: in vitro translated (TNT coupled transcription-translation reticulocyte lysate, T7 polymerase) from PCR3.1 SRC3/NCOA3
B3: nuclear receptor coactivator NCOA1 (SRC1), GreenLys-labeled (natural protein)
chain: not shown
modifications: Fluorotect GreenLys-labeled (fluorescent lysines built in during translation)
notes: plasmid PCR3.1 SRC1/NCOA1 from O'Malley and Smith; source: in vitro translated (TNT coupled transcription-translation reticulocyte lysate, T7 polymerase) from PCR3.1 SRC1/NCOA1
B4: estrogen receptor α (ERα), GreenLys-labeled (receptor, human, UniProt P03372 1-595, looked up)
chain: MTMTLHTKASGMALLHQIQGNELEPLNRPQLKIPLERPLGEVYLDSSKPAVYNYPEGAAYEFNAAAAANAQVYGQTGLPYGPGSEAAAFGSNGLGGFPPLNSVSPSPLMLLHPPPQLSPFLQPHGQQVPYYLENEPSGYTVREAGPPAFYRPNSDNRRQGGRERLASTNDKGSMAMESAKETRYCAVCNDYASGYHYGVWSCEGCKAFFKRSIQGHNDYMCPATNQCTIDKNRRKSCQACRLRKCYEVGMMKGGIRKDRRGGRMLKHKRQRDDGEGRGEVGSAGDMRAANLWPSPLMIKRSKKNSLALSLTADQMVSALLDAEPPILYSEYDPTRPFSEASMMGLLTNLADRELVHMINWAKRVPGFVDLTLHDQVHLLECAWLEILMIGLVWRSMEHPGKLLFAPNLLLDRNQGKCVEGMVEIFDMLLATSSRFRMMNLQGEEFVCLKSIILLNSGVYTFLSSTLKSLEEKDHIHRVLDKITDTLIHLMAKAGLTLQQQHQRLAQLLLILSHIRHMSNKGMEHLYSMKCKNVVPLYDLLLEMLDAHRLHAPTSRGGASVEETDQSHLATAGSTSSHSLQKYYITGEAEGFPATV
modifications: Fluorotect GreenLys-labeled (fluorescent lysines built in during translation)
notes: also called hERα; fluorescently labeled ERα; source: in vitro translated (TNT coupled transcription-translation reticulocyte lysate, T7 polymerase) from pcDNA3.1 ERα

These binders were tested against T1, GST-Ets1 fusion protein (assay: pull-down; GST or GST-Ets1 (4 µg/20 µL glutathione-sepharose resin) in 0.5 mL binding buffer (40 mM HEPES pH 7.5, 100 mM NaCl, 5 mM MgCl2, 0.1 mM EDTA, 0.05% Nonidet P-40, 1 mM DTT); GreenLys-labeled ERα (5 µL) 30 min at 4°C, labeled NCOA (5 µL) a further 2 h, alone or in combination; washed 3 times with 0.1% Triton X-100; SDS-PAGE, fluorescence imaging, percent of input bound). Settings: one partner purified.

percent of labeled input bound [%] | Binder
9 | B1
26 | B2
27 | B3
10 | B4
